Legend:
[1] = biological target: SpmX-L (SpmX lysozyme-like domain alone, residues 1 to 155) (Caulobacter crescentus); test: MST; Atto-488-labelled SpmX* or SpmX-L* held constant at 25 nM; PopZ (max 10 μM), DivJ (max 40 μM) or unlabelled SpmX titrated in 2-fold serial dilutions; incubated 10 min at room temperature; fitted by the law of mass action
[2] = biological target: SpmX (purified WT SpmX without its transmembrane region, residues 1 to 355) (Caulobacter crescentus); test: as above
[3] = biological target: SpmX E19R (purified) (Caulobacter crescentus); test: SEC; analytical size exclusion, Superdex 200 Increase 10/300 GL; apparent masses from a Bio-Rad gel filtration standard; purified SpmX variants alone
[4] = biological target: PopZ (purified, His-tagged) (Caulobacter crescentus); test: SPR; PopZ immobilised on the sensor chip; 2-fold serial dilutions of WT SpmX or SpmX-L injected, with washes between injections
[5] = biological target: T1, DivJ histidine kinase (purified without its TM regions, His-tagged) (Caulobacter crescentus, UniProt Q03228 189-597); test: MST; Atto-488-labelled SpmX* or SpmX-L* held constant at 25 nM; PopZ (max 10 μM), DivJ (max 40 μM) or unlabelled SpmX titrated in 2-fold serial dilutions; incubated 10 min at room temperature; fitted by the law of mass action; conditions: both partners purified
T1 construct: DivJ histidine kinase, Caulobacter crescentus, purified without its TM regions (the cytoplasmic portion); Construct limits are expected in Text S1; also called cytoplasmic portion of DivJ; source: purified, His-tagged
T1 sequence (looked up): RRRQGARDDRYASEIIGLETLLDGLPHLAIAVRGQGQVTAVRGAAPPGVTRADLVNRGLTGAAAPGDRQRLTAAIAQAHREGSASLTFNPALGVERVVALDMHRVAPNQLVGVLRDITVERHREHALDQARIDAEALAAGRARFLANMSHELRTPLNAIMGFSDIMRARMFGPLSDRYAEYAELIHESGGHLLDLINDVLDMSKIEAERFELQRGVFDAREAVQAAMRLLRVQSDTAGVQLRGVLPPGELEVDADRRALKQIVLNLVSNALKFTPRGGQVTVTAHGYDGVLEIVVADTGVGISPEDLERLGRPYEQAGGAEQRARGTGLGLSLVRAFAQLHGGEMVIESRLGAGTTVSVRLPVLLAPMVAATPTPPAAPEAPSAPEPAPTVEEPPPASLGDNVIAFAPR

[6] = biological target: the molecule itself; test: as above

Chain of PopZ (purified, His-tagged) (Caulobacter crescentus) (A0A0H3C7Y4 entry or part of it): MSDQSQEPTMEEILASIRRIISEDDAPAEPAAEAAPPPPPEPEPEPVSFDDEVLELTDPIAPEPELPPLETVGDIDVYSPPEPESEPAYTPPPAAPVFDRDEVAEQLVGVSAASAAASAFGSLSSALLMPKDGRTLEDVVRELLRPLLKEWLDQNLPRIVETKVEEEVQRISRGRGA

Question: For “DivJ histidine kinase (purified without its TM regions, His-tagged) (from UniProt Q03228 189-597) (domain or fragment)”, which Kd [1] is on record?
Answer: 6300 nM

Question: Which results are given for “PopZ (purified, His-tagged) (natural protein)”?
Answer: Kd [2]: 600 nM; Kd [1]: 120 nM

Question: “SpmX E19R (purified) (domain or fragment)” was tested. Which stoichiometry N [3] did it give?
Answer: 4

Question: Which overall SPR response relative to WT SpmX at comparable concentrations [4] does the source give for “SpmX-L (SpmX lysozyme-like domain alone, residues 1 to 155) (domain or fragment)” here?
Answer: 2 fold

B1: SpmX (purified WT SpmX without its transmembrane region, residues 1 to 355) (domain or fragment, Caulobacter crescentus, UniProt A0A0H3C9Y4 1-355, looked up)
chain: MKPRHQVSRAAVDLIKRFEGYRQKAAQLPDGRWTVGYGHTLTAREGASVSEKDAEALLLYDLISVAHSVNEHTYTPLNQNQFDALVCFAFNIGLDNFLRSGVLRRINEGSLLQAACAMEMWRKADFEGERIVIDALVRRRSAEKTLFLTPANGEWVPAPSPVLRPKVDYDASCAVPKQTPATVNTRTEGDRVIAQREEGLPLNVVVPEEDAPTATEQSAAAVAARLEAILPETPSAPASMAKPAMRQDDLGLPEPPAPTQPAAMEPAPVLFEAEPQPAPVEPPPAAPVEFTPFRLTPQASEQAEAPVEAPAPTRPAPSEPTLFGAPATGSSVFNLDGFSTSEDATVGVMDVPLVE
modifications: Atto-488 on lysine residues, approximately one dye molecule per protein (only the labelled copy SpmX* held constant in MST; unlabelled as titrant and in SPR, SEC and native gel)
notes: purified without the TM region, residues 1 to 355; predicted monomeric mass 40.1 kDa; Forms higher-order oligomers (void volume in SEC, ladder in native gel); Construct details are in Text S1; also called SpmX-ΔTM; source: purified, His-tagged
Question: How did the Kd [1] turn out when B1 was run?
Answer: 630 nM

Question: What about the Kd [5] of the same molecule?
Answer: 510 ± 90 nM

Question: And the Kd [6]?
Answer: 360 ± 50 nM

From publication PMC5347347, “A Localized Complex of Two Protein Oligomers Controls the Orientation of Cell Polarity” (mBio, 2017)
